From CN113150137A come the findings set out here.

This assay deals with 重组NDM-1蛋白 (新德里金属β-内酰胺酶, 肺炎克雷伯菌) (肺炎克雷伯菌 (Klebsiella pneumoniae)) (UniProt C7C422). Put plainly: indirect ELISA, NDM-1 coated at 100 ng/well, purified antibody diluted 1:10000 to 1:2560000, positive if the ratio to the negative control is >2.1.

Where a chain is given by its changes, count along the chain named.

UniProt C7C422, sequence (C7C422 29-270 limits assumed): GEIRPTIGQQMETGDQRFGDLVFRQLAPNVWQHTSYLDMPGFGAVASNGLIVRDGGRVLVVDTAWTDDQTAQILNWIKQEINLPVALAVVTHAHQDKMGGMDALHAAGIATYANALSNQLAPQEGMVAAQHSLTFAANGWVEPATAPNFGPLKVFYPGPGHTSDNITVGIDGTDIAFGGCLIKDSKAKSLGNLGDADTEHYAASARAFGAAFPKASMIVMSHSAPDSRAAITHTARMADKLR

B1: 单克隆抗体5B9 (antibody, V domains shown)
VH: EVQLVESGGGLVKPGGSLKLSCAASGFTFSSYAMSWVRQSPEKRLEWVADISSGGSYTYYPDTVTGRFTISRDNAKNTLYLEMSSLGSEDTAMYYCAREYGGGFDYWGQGTTLTVSS
VL: DIQMTQSPASLSASVGETVTITCRASGNIHNYLAWYQQKQGKSPQLLVYNAKTLADGVPSRFSGSGSGTQYSLKINSLQPEDFGSYYCQHFWSIPRTFGGGTKLEIK
On to B1, for which the 效价 (ELISA titer, highest positive dilution) (fold dilution) came to 1e+06.

B2: 单克隆抗体5G6 (antibody, V domains shown)
VH: B1 VH with S31N, S84T, G87R
VL: B1 VL with S85N
As for B2, the 效价 (ELISA titer, highest positive dilution) (fold dilution) came out at 1e+06.

B3: 单克隆抗体7C10 (antibody, V domains shown)
VH: QVQLQQPGAELVRPGASVRLSCKASGYTFTNYWMNWVKQRPGQGLEWIGSINPSDGYTKYNQKFKDKATLTVDKSSSTAYLQLSSPTSEDSAVYYCTRKKVNYDYAMDYWGQGTSVTVSS
VL: DIVMSQSPSSLAVSVGEKVTMSCKSSQSLLYSSNQKNYLAWYQQKPGQSPKLLIYWASTRESGVPDRFTGSGSGTDFTLTISSVKAEDLAFYYCHQYYSYPYTFGGGTKLERK
Regarding B3, the 效价 (ELISA titer, highest positive dilution) (fold dilution) amounted to 600000.
